Experiments:
[1] = biological target: Staphylococcus aureus O-acetyl-L-serine sulfhydrylase (CysK) (S. aureus) (UniProt P63871); test: SPR
crystal structure = biological target: the molecule itself; test: crystal structure

| Binder | Kd [1] | stoichiometry N (crystal structure) |
| --- | --- | --- |
| MFYI [CymR 4] | 4.1 µM | – |
| Staphylococcus aureus O-acetyl-L-serine sulfhydrylase (CysK) (enzyme, S. aureus, UniProt P63871 1-310, looked up, PLP cofactor in a Schiff base linkage with the ε-amino group of K46) MAQKPVDNITQIIGGTPVVKLRNVVDDNAADVYVKLEYQNPGGSVKDRIALAMIEKAEREGKIKPGDTIVEPTSGNTGIGLAFVCAAKGYKAVFTMPETMSQERRNLLKAYGAELVLTPGSEAMKGAIKKAKELKEEHGYFEPQQFENPANPEVHELTTGPELLQQFEGKTIDAFLAGVGTGGTLSGVGKVLKKEYPNIEIVAIEPEASPVLSGGEPGPHKLQGLGAGFIPGTLNTEIYDSIIKVGNDTAMEMSRRVAKEEGILAGISSGAAIYAAIQKAKELGKGKTVVTVLPSNGERYLSTPLYSFDD | – | 2 |
